These results are taken from article PMC8298264, “Function of cofactor Akirin2 in the regulation of gene expression in model human neutrophil-like HL60 cells” (Bioscience Reports, 2021).

This experiment has as its system human HL60 cells. As to the kind of experiment: SWATH-MS proteomics, differential protein representation, akirin2 KO vs WT HL60 cells. The note with it: akirin2 KO vs WT HL60 cells. In kind it is cell-based. The essentials: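 Three biological replicates per genotype; 150 µg protein FASP/trypsin digested; IDA library (3 µg digest); SWATH variable windows, 5 µg/sample, 3.6 s cycle; gradient 5–30% B 120 min then 30–60% B 15 min; 1% global FDR; TAS normalization.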

[1] abbreviates: SWATH-MS, over-represented in KO.

B1: sp¦Q99436¦PSB7_HUMAN (protein, UniProt Q99436 44-277, looked up)
Proteasome subunit beta type-7: TTIAGVVYKDGIVLGADTRATEGMVVADKNCSKIHFISPNIYCCGAGTAADTDMTTQLISSNLELHSLSTGRLPRVVTANRMLKQMLFRYQGYIGAALVLGGVDVTGPHLYSIYPHGSTDKLPYVTMGSGSLAAMAVFEDKFRPDMEEEEAKNLVSEAIAAGIFNDLGSGSNIDLCVISKNKLDFLRPYTVPNKKGTRLGRYRCEKGTTAVLTEKITPLEIEVLEETVQTMDTS
With B1, under “sheet "Over-represented in KO"”, the “Fold Change” value was 1.138 and the “Log (Fold Change)” value came to 0.056.

B2: Protein Churchill (protein, UniProt Q8WUH1 1-112, looked up)
Protein Churchill: MCGDCVEKEYPNRGNTCLENGSFLLNFTGCAVCSKRDFMLITNKSLKEEDGEEIVTYDHLCKNCHHVIARHEYTFSIMDEFQEYTMLCLLCGKAEDTISILPDDPRQMTLLF
As for B2, under setting [1], the “Fold Change” value came to 2.847 and the “Log (Fold Change)” value was 0.4544.

B3: sp¦Q13177¦PAK2_HUMAN (protein, UniProt Q13177 2-524, looked up)
Serine/threonine-protein …: SDNGELEDKPPAPPVRMSSTIFSTGGKDPLSANHSLKPLPSVPEEKKPRHKIISIFSGTEKGSKKKEKERPEISPPSDFEHTIHVGFDAVTGEFTGMPEQWARLLQTSNITKLEQKKNPQAVLDVLKFYDSNTVKQKYLSFTPPEKDGFPSGTPALNAKGTEAPAVVTEEEDDDEETAPPVIAPRPDHTKSIYTRSVIDPVPAPVGDSHVDGAAKSLDKQKKKTKMTDEEIMEKLRTIVSIGDPKKKYTRYEKIGQGASGTVFTATDVALGQEVAIKQINLQKQPKKELIINEILVMKELKNPNIVNFLDSYLVGDELFVVMEYLAGGSLTDVVTETCMDEAQIAAVCRECLQALEFLHANQVIHRDIKSDNVLLGMEGSVKLTDFGFCAQITPEQSKRSTMVGTPYWMAPEVVTRKAYGPKVDIWSLGIMAIEMVEGEPPYLNENPLRALYLIATNGTPELQNPEKLSPIFRDFLNRCLEMDVEKRGSAKELLQHPFLKLAKPLSSLTPLIMAAKEAMKSNR
For B3, where the note is “sheet "Over-represented in KO"”, the “Fold Change” value is on record as 1.114 and the “Log (Fold Change)” value was 0.04699.

B4: sp¦P46926¦GNPI1_HUMAN (protein, UniProt P46926 1-289, looked up)
Glucosamine-6-phosphate …: MKLIILEHYSQASEWAAKYIRNRIIQFNPGPEKYFTLGLPTGSTPLGCYKKLIEYYKNGDLSFKYVKTFNMDEYVGLPRDHPESYHSFMWNNFFKHIDIHPENTHILDGNAVDLQAECDAFEEKIKAAGGIELFVGGIGPDGHIAFNEPGSSLVSRTRVKTLAMDTILANARFFDGELTKVPTMALTVGVGTVMDAREVMILITGAHKAFALYKAIEEGVNHMWTVSAFQQHPRTVFVCDEDATLELKVKTVKYFKGLMLVHNKLVDPLYSIKEKETEKSQSSKKPYSD
For B4, for the setting “sheet "Over-represented in KO"”, the “Fold Change” value was 1.154 and the “Log (Fold Change)” value is reported as 0.06211.

B5: sp¦Q14019¦COTL1_HUMAN (protein, UniProt Q14019 2-142, looked up)
Coactosin-like protein: ATKIDKEACRAAYNLVRDDGSAVIWVTFKYDGSTIVPGEQGAEYQHFIQQCTDDVRLFAFVRFTTGDAMSKRSKFALITWIGENVSGLQRAKTGTDKTLVKEVVQNFAKEFVISDRKELEEDFIKSELKKAGGANYDAQTE
For the molecule B5, under “sheet "Over-represented in KO"”, the “Fold Change” value is on record as 1.126 and the “Log (Fold Change)” value came to 0.0517.

B6: sp¦Q92945¦FUBP2_HUMAN (protein, UniProt Q92945 2-711, looked up)
Far upstream element-binding …: SDYSTGGPPPGPPPPAGGGGGAGGAGGGPPPGPPGAGDRGGGGPGGGGPGGGSAGGPSQPPGGGGPGIRKDAFADAVQRARQIAAKIGGDAATTVNNSTPDFGFGGQKRQLEDGDQPESKKLASQGDSISSQLGPIHPPPRTSMTEEYRVPDGMVGLIIGRGGEQINKIQQDSGCKVQISPDSGGLPERSVSLTGAPESVQKAKMMLDDIVSRGRGGPPGQFHDNANGGQNGTVQEIMIPAGKAGLVIGKGGETIKQLQERAGVKMILIQDGSQNTNVDKPLRIIGDPYKVQQACEMVMDILRERDQGGFGDRNEYGSRIGGGIDVPVPRHSVGVVIGRSGEMIKKIQNDAGVRIQFKQDDGTGPEKIAHIMGPPDRCEHAARIINDLLQSLRSGPPGPPGGPGMPPGGRGRGRGQGNWGPPGGEMTFSIPTHKCGLVIGRGGENVKAINQQTGAFVEISRQLPPNGDPNFKLFIIRGSPQQIDHAKQLIEEKIEGPLCPVGPGPGGPGPAGPMGPFNPGPFNQGPPGAPPHAGGPPPHQYPPQGWGNTYPQWQPPAPHDPSKAAAAAADPNAAWAAYYSHYYQQPPGPVPGPAPAPAAPPAQGEPPQPPPTGQSDYTKAWEEYYKKIGQQPQQPGAPPQQDYTKAWEEYYKKQAQVATGGGPGAPPGSQPDYSAAWAEYYRQQAAYYGQTPGPGGPQPPPTQQGQQQAQ
For B6, for the setting “sheet "Over-represented in KO"”, the “Fold Change” value is on record as 1.125 and the “Log (Fold Change)” value was 0.05126.

B7: sp¦P29218¦IMPA1_HUMAN (protein, UniProt P29218 1-277, looked up)
Inositol monophosphatase 1: MADPWQECMDYAVTLARQAGEVVCEAIKNEMNVMLKSSPVDLVTATDQKVEKMLISSIKEKYPSHSFIGEESVAAGEKSILTDNPTWIIDPIDGTTNFVHRFPFVAVSIGFAVNKKIEFGVVYSCVEGKMYTARKGKGAFCNGQKLQVSQQEDITKSLLVTELGSSRTPETVRMVLSNMEKLFCIPVHGIRSVGTAAVNMCLVATGGADAYYEMGIHCWDVAGAGIIVTEAGGVLMDVTGGPFDLMSRRVIAANNRILAERIAKEIQVIPLQRDDED
B7: for the setting “sheet "Over-represented in KO"”, the “Fold Change” value came to 1.12 and the “Log (Fold Change)” value was found to be 0.04931.

B8: Peroxiredoxin-2 (protein, UniProt P32119 2-198, looked up)
Peroxiredoxin-2: ASGNARIGKPAPDFKATAVVDGAFKEVKLSDYKGKYVVLFFYPLDFTFVCPTEIIAFSNRAEDFRKLGCEVLGVSVDSQFTHLAWINTPRKEGGLGPLNIPLLADVTRRLSEDYGVLKTDEGIAYRGLFIIDGKGVLRQITVNDLPVGRSVDEALRLVQAFQYTDEHGEVCPAGWKPGSDTIKPNVDDSKEYFSKHN
For the molecule B8, under setting [1], the “Fold Change” value is recorded as 2.923 and the “Log (Fold Change)” value was found to be 0.4659.

B9: sp¦P13667¦PDIA4_HUMAN (protein, UniProt P13667 21-645, looked up)
Protein disulfide-isomerase A4: VAGAEGPDEDSSNRENAIEDEEEEEEEDDDEEEDDLEVKEENGVLVLNDANFDNFVADKDTVLLEFYAPWCGHCKQFAPEYEKIANILKDKDPPIPVAKIDATSASVLASRFDVSGYPTIKILKKGQAVDYEGSRTQEEIVAKVREVSQPDWTPPPEVTLVLTKENFDEVVNDADIILVEFYAPWCGHCKKLAPEYEKAAKELSKRSPPIPLAKVDATAETDLAKRFDVSGYPTLKIFRKGRPYDYNGPREKYGIVDYMIEQSGPPSKEILTLKQVQEFLKDGDDVIIIGVFKGESDPAYQQYQDAANNLREDYKFHHTFSTEIAKFLKVSQGQLVVMQPEKFQSKYEPRSHMMDVQGSTQDSAIKDFVLKYALPLVGHRKVSNDAKRYTRRPLVVVYYSVDFSFDYRAATQFWRSKVLEVAKDFPEYTFAIADEEDYAGEVKDLGLSESGEDVNAAILDESGKKFAMEPEEFDSDTLREFVTAFKKGKLKPVIKSQPVPKNNKGPVKVVVGKTFDSIVMDPKKDVLIEFYAPWCGHCKQLEPVYNSLAKKYKGQKGLVIAKMDATANDVPSDRYKVEGFPTIYFAPSGDKKNPVKFEGGDRDLEHLSKFIEEHATKLSRTKEEL
For the molecule B9, where the note is “sheet "Over-represented in KO"”, the “Fold Change” value turned out to be 1.162 and the “Log (Fold Change)” value was 0.06526.

B10: sp¦Q92900¦RENT1_HUMAN (protein, UniProt Q92900 1-1129, looked up)
Regulator of nonsense …: MSVEAYGPSSQTLTFLDTEEAELLGADTQGSEFEFTDFTLPSQTQTPPGGPGGPGGGGAGGPGGAGAGAAAGQLDAQVGPEGILQNGAVDDSVAKTSQLLAELNFEEDEEDTYYTKDLPIHACSYCGIHDPACVVYCNTSKKWFCNGRGNTSGSHIVNHLVRAKCKEVTLHKDGPLGETVLECYNCGCRNVFLLGFIPAKADSVVVLLCRQPCASQSSLKDINWDSSQWQPLIQDRCFLSWLVKIPSEQEQLRARQITAQQINKLEELWKENPSATLEDLEKPGVDEEPQHVLLRYEDAYQYQNIFGPLVKLEADYDKKLKESQTQDNITVRWDLGLNKKRIAYFTLPKTDSGNEDLVIIWLRDMRLMQGDEICLRYKGDLAPLWKGIGHVIKVPDNYGDEIAIELRSSVGAPVEVTHNFQVDFVWKSTSFDRMQSALKTFAVDETSVSGYIYHKLLGHEVEDVIIKCQLPKRFTAQGLPDLNHSQVYAVKTVLQRPLSLIQGPPGTGKTVTSATIVYHLARQGNGPVLVCAPSNIAVDQLTEKIHQTGLKVVRLCAKSREAIDSPVSFLALHNQIRNMDSMPELQKLQQLKDETGELSSADEKRYRALKRTAERELLMNADVICCTCVGAGDPRLAKMQFRSILIDESTQATEPECMVPVVLGAKQLILVGDHCQLGPVVMCKKAAKAGLSQSLFERLVVLGIRPIRLQVQYRMHPALSAFPSNIFYEGSLQNGVTAADRVKKGFDFQWPQPDKPMFFYVTQGQEEIASSGTSYLNRTEAANVEKITTKLLKAGAKPDQIGIITPYEGQRSYLVQYMQFSGSLHTKLYQEVEIASVDAFQGREKDFIILSCVRANEHQGIGFLNDPRRLNVALTRARYGVIIVGNPKALSKQPLWNHLLNYYKEQKVLVEGPLNNLRESLMQFSKPRKLVNTINPGARFMTTAMYDAREAIIPGSVYDRSSQGRPSSMYFQTHDQIGMISAGPSHVAAMNIPIPFNLVMPPMPPPGYFGQANGPAAGRGTPKGKTGRGGRQKNRFGLPGPSQTNLPNSQASQDVASQPFSQGALTQGYISMSQPSQMSQPGLSQPELSQDSYLGDEFKSQIDVALSQDSTYQGERAYQHGGVTGLSQY
As to B10, under “sheet "Over-represented in KO"”, the “Fold Change” value came to 1.105 and the “Log (Fold Change)” value amounted to 0.04317.

B11: sp¦Q8WU90¦ZC3HF_HUMAN (protein, UniProt Q8WU90 1-426, looked up)
Zinc finger CCCH …: MPPKKQAQAGGSKKAEQKKKEKIIEDKTFGLKNKKGAKQQKFIKAVTHQVKFGQQNPRQVAQSEAEKKLKKDDKKKELQELNELFKPVVAAQKISKGADPKSVVCAFFKQGQCTKGDKCKFSHDLTLERKCEKRSVYIDARDEELEKDTMDNWDEKKLEEVVNKKHGEAEKKKPKTQIVCKHFLEAIENNKYGWFWVCPGGGDICMYRHALPPGFVLKKDKKKEEKEDEISLEDLIERERSALGPNVTKITLESFLAWKKRKRQEKIDKLEQDMERRKADFKAGKALVISGREVFEFRPELVNDDDEEADDTRYTQGTGGDEVDDSVSVNDIDLSLYIPRDVDETGITVASLERFSTYTSDKDENKLSEASGGRAENGERSDLEEDNEREGTENGAIDAVPVDENLFTGEDLDELEEELNTLDLEE
Turning to B11, for the setting “sheet "Over-represented in KO"”, the “Fold Change” value is on record as 1.158 and the “Log (Fold Change)” value stood at 0.06384.
